From the nanobody polyreactivity screen of Harvey et al. (2022)

Assay: yeast display, Sf9 membrane polyspecificity reagent, FACS + sequencing; frameworks hold sequencing errors
How it was run: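 After 36–48 hours of galactose induction, yeast (Saccharomyces cerevisiae BJ5465) displaying a synthetic nanobody library were stained at 4 °C for 1 hour with 10% biotinylated, detergent-solubilized Sf9 membrane reagent. Streptavidin microbeads enriched the stained cells before FACS sorting into low and high (top ~1%) gates on anti-HA and streptavidin fluorescence. Each clone's polyreactivity label reflects its gate of origin.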

Row | Sequence | polyreactivity (PSR sort gate)
1 | HVQLVESGGGLVQAGGSLRLSCAASGLNFLYYGMGWYRQAPGKERELVAAISSGGGTYYADSVKGRFTISRDNAKNTVYLQMNSLKPEDTAVYYCAVDPQWTYWSTYRYDYWGQGTQVTVSS | low polyreactivity
2 | QVQLVESGGGLVQAGGSLRLSCAASGRTFYTNTMGWYRQAPGKERELVAAISYSGSSTYYADSVKGRFTISRDNAKNTVYLQMNCLKPEDTAVYYCNAVRYYRYYYWGQGTQVTVSS | low polyreactivity
3 | QVQLLESCGGLDQAGGSLRLSCAASGSTFGTNAMGWYRKAPGKERELVAAITSSGGSTNYADSVKWRFTISLDNANNSVYFQMNCLKPEDTAVYYCNDVSYSTTYGGDSWGQGTQVTVSS | low polyreactivity
4 | QVQLVESGGGLVQAGGSLRLSCAASGRTFEQYSMGWYRQAPGKERELVAAISGSGGSTFYADSVKGRFTISRDNAKNTVYLQMNSLKPEDTAVYYCNAPGDGYLYDHTYDYWGQGTQVTVSS | low polyreactivity
5 | QVQLVESGGGLVQAGGSIRLTCAASGSIFYHYAMGWYRQAPAKERELVADITQSGGTTDYADSVKGRFTISRDNAKNTVYLQMNSLKTEDTAVYYCAADGDTTSPTYYIFWYGEFDYCGQGTQVTVSS | low polyreactivity
6 | QVQLVESGGGLDQAGGSLRLSCAASGRTFKWNAIGWYRQAHGKERELVASITSGGSTNYADSVKGRFTISRDNAKNTVYLQMNSLKPEDTAVYYCNAEYYLFKRPYSYYYWGQGTQVTVSS | low polyreactivity
7 | QVQLVESGGGLVQAGGSLRLSCAASGFIFKRYTMGWYRQAPGKERELVAAISANGGRTYYADSVKGRFTISRDNAKNTVYLQMNSLKPEDTAVYYCAATRWDYTLYGYDYWGQGTQVTVSS | high polyreactivity
8 | QVQLVESGGGLVQAGGSLRLSCAASGRTFGGNSMGWYRQAPAKERELVAAISRGGSTKYADSVKGRFTISRDNAKNTVYLQMNSLKPEDTAVYYCAASPKFHYDYWGQGTQVTVSS | low polyreactivity
9 | QVQLVESGGGLVQAGGSLRLSCAASGSIFFDGNAMGWYRQAPGKERELVAAISVSGGSTYYADSVKGRFTISRDNAKNTVYLQMNSLKPDDTAVYYCAKFPSKSYVPGDYWGQGTQVTVSS | low polyreactivity
10 | QVQLVESGGGLVQAGGSLRLSSAASTYLRLLMLWDGIDRRLGQIGSWLPLLTLVVNSTYYADSVKGRFTISRDNAKNTVYFQMNSLKPEDTAVYYCNVDPYGTYARTHLEYWGQGTQVTVSS | low polyreactivity
11 | QVQLVESGGGLVQAGGSLRLSCAASGFIFNYYLGWYRQAPGKEREWVAAISQSGDSTYYADSVKGRFTISRDNAKNTVYLQMNSQKPEDTAVYYCAAETSPDYRGVTYYYWGQGTQVTLSS | high polyreactivity
12 | QVQLVESGGGLVQAGGSLRLSCAASGRTFTYNAMGWYRQAPGKERELVATINTSGASTSYADSVKGRFTISRDNAKNTVYLQMNCLKPEDTAVYYCNRDRRYYHRFDYWGQGTQVTVSS | low polyreactivity
13 | QVQLVESGGGLVQAGGSLRLSCAASGIIFGDNAMGWYRQAPGKERELVAAIDSGGSTYYADSVKGRFTISRDNAKNTVYLQMNSLKPEDTAVYYCNAVTAFGYSYGGWDYDQYNYWGQGTQVTVSS | low polyreactivity
14 | QVQLVESGVGLVQAGGSLRLSCAASGRIFTFNVMGWYRQAPGKERELVAAITFSGGSTYYADSVKGRFTISRDNAKNTVYLQMNRLKTEDTAVYFCAAKISLGDDYWGQGTQVTVSS | low polyreactivity
15 | QVQLVESGGGFVQAGGSLRLSCAASGSTFSVYAMGWYRQAPGKERELVATIRRGGSTYADSVKGRFTISRDNAKNTVYLQMNSLKPEDTAVYDCAADAYVSSQPMDYWGQGTQVTVSS | high polyreactivity
16 | QVQLVESGGGLVQAGGSLRLSCAASGSIFRYYAMGWYRQAPGKERELVAVITRGGSTYYADSVKGRFTISRDNAKNTVYLQMNRLKPEDTAVYYCAADFWPAGLDRGYWGQGTQVTVSS | low polyreactivity
17 | QVQLVESGGGLVQAGGSLRLSCAASGFTFGTYAMGWYRQAPGKERELVAAITDGGGSTYYADSVKGRFSISRDNAKNTVYLQMNSLKPEDTAVYYCAAEFGYGWYTWLTGNDYWGQGTQVTVSS | low polyreactivity
18 | QVQLVESGGGLVQAGGSLRLSCAASGFTFSNYAMGWYRQAPGKERELVAAISWSGGSTYYADSVKGRFTISRDNAKNTVYLQMNSLKPEDTAVYYCNVLARPPYYKTRVNSPRSDYWGQGTQVTVSS | high polyreactivity
19 | QVQLVESGGGLVQAGGSLRLSCAAYGITFGANAMGWYRQAPGKERELVADITWSGGDTYYADSVKGRFTISRDNAKYTVYLQMTSLIPEDTAVYYCNALQPGLGSPLGEYDFWGQGTQVTVSS | low polyreactivity
20 | QVQLVETGGGLVQAGGSLRLSCAASGSIFHPYGIGSYRQGPGKERELVAAITSSGGDTYYADSVKGRFTISRDNSKNTVYLQINSLKPEDTAVYYCAATGLPGYYAYDYWGQGTQVTVSS | low polyreactivity
21 | QVQLVESGGGLVQARGSLRLSCAASGIIFYSYAMGWYRQAPGKEREFVAAITNSDGSTYYADSVKGRFTISRDNAKNTVYLQMNSLKPEDTAVYMYYWGQGTQVTVSS | low polyreactivity
22 | QVQLVESGGGLVQAGGSLSLSCAASGLTSSENAMGWYRQAHGKERELVAAINVSGGSTYYADSVKGRFTISRDNAKNTVYLQMNSLKPEDTAVYYCAADNPYAYARSSWYEYNYWGQGTQVTVSS | high polyreactivity

Row | Sequence | polyreactivity (PSR sort gate)
23 | QVQLVESGGGLVQAGGSLRLSCAASGSTFPLYVMGWYRQAPGKERELVAAIDWSGGSTYYADSVKGRFTISRDTAKNTVYLQMNSLKPEDTAVYYCAADSPNSWRMDYWGQGTQVTVSS | low polyreactivity
24 | QVQLVESGGGLVQAGGSLRLSCAASGFTFGGYAMGWYRQAPGKERELVAAINWSGGSTDYADSVKGRFTISRDIAKNTVYLQMNSLKPEDTAVYYCAAEGQDGRFYWGQGTQVTVSS | low polyreactivity
25 | QVQLVESGGGLVQAGGSLRLSCAASGRTFRKNAMGWYRQAPGKERELVAAISDTGGSTYYADSVKGRFTISRDNAKNTVYFQMNSLKTEDTAVYYCAATVRYRGFYYWGQGTQVTVSS | high polyreactivity
26 | QVQLVDSGGGLVQAGGSLRLSCAASGFTFVPYAMGWYRQAPGKERETNADSVKGRFTISRDNAKNTVYLQMNSLKPEDTAVYYCAAGGYGPYDYWGQGTQVTVSS | low polyreactivity
27 | QVQLVESGGGLVQAGGSLRLSCAASGRIFRWYAMGWYRQAPGKERELVAAISRSGTSTYYADSVKGRFTISRDNAKNTVYLQMNSLKPEDTAVYYCAADAVIFGMDYWGQGTQVTVSS | low polyreactivity
28 | QVQLVESGGGVVQAGGSLRLSCAASGSTFGINCYGMYRQAPGKERELVAGISVSGGSTYYADSVKGRFTISRDNAKNTVYLKMNSLKPEDSAVYYCNRDTTVFLIYSYGYWGQGTQVTVSS | low polyreactivity
29 | QEQLQECGGGLVQAGGSLRLSCAASGNVFDADIMGWYRQAPGKERELVASVTDGGSTNYADSVKGRFTFSRDIAKNTVYLQMNSLKPEDTAVYYCAAIVYPDILTYFDYDYDYFYWGQGTQVTVGS | low polyreactivity
30 | QVQIVESGGLLVQAGGSLRLSCAASGFIFNPNAMGWYRQAPGKERELVAAIRWSGGSTYYADSVQGRFTISRDNEKNTVYLQMNSLKPDDTAVYYCAANPRTTRYGRGYWGQGTQVSVSS | high polyreactivity
31 | QVQLVESGGGLVQAGGRHRLSCAASGRTFGVYAMGWYRQAPGKEREFVGVISWSDDSTYYADSVKGRFTISRDNAKNTVSLQMNSLKPEDTAVYYCNADDYLVYSGSHYGYWGQGTQVTVSS | low polyreactivity
32 | QVQLVESGGGLVQAGGSLRLSCAASGSTYNAMGWYRQAPGKEREFVAAISWGGGSTYYADSVKGRFTISRDNAKNTVYLQMNSLKPEDTAVYYCAKTPNYRIRHDYWGQGTQVTVSS | low polyreactivity
33 | QVQLVESGGGLVQAGGSLRLSCAASGSIFSTNAMGWYRQAPGKERELVATISGADGTNYADSVKGRFTISRDNAKNTVYLQMNSLKPEDTAVYYSNAFPWPVYRGYYWGQGTQVTVSS | low polyreactivity
34 | QVQLVESGGGLVQAGGSLRLSCAASGSTFTPYAMGWYRQAPGKDREFVAVITRSGTRTYYADSVKGRFTISRDNAKNTVYLQMNSLKPEDTAVSYCAADRHPYNRYDYYYWGQGTQVTVSS | high polyreactivity
35 | QVQLVESGGGLVQAGGSLRLSCAASARILAYYAMGWYRQAPGKERELVAAITSGGRTYYADSVKGRFTISRDNAKNTVYLQMNSLKPEDTAVYYGAVRWYPRYGSRYDYWGQGTQVTVSS | high polyreactivity
36 | QVQLVESGGGLVQAGGSLRLSCAASGFTFNKYAMGWYRQAPGKERELVAAISSSGGSTRYADSVKGRFTISRDNAKNTVYLQMNSLKPEDTADYYCAVYVTSDSGWWLYDYWGQGTQVTVSS | high polyreactivity
37 | QVQLVESGGGLVQAGGSLRISCAASGITLYDNVMGWYRQAPGKERELVAAISSSGTTKYYADSVKGRFTMSRDHANNTVYLQMNSLKPEDTAGSYCAADGITWYAIAYYYWGQGTQVTVSS | high polyreactivity
38 | QVQLVESVGGLVQAGGSLRLSCAASGRTFYYYTMGWYRQAPGKEWELVAAISSTGNTYYADSVKGRFTISRDNAKNTVYLHMISLQPEDTAVYYCAALGYVKLLAQAYEYWGHGTQVTVSS | high polyreactivity
39 | QVQLVDSGGGLVQAGGTLRLSCSASGRTFPTYAMGWYRQAPGKEREVVAAISSSGCSTYYADSVKGRFTISRDNAKNSVYLQMHSLKPEDTAVYYCAALRDRNLNPGYDYWGQGTQLTVSS | low polyreactivity
40 | QVQLVESGGGLVQAGRSLRLSCAASGFTLTPYAMGWYRQAPGKERELVARISDSGDSTYYADSVKGRFTMSRDNAKNTVYLQMNRLKPEDTAVYYCATDWNAGIDYYRFYADEYNYWGQGSQVTVSS | low polyreactivity
41 | QVQLVESGGGLVQAGGSLRLSCAASGRTFQWYAMGWYRQAPGKERELVAAISYSDASTYYADSVKGRFTISRDNAKNTVYLQMNSLKPEDTAVYYCAAVYYVVYGPWGGSYYWGQGTQVTVSS | low polyreactivity
42 | QVQLVESGGGLVQAGGSLRLSCAASGYIFAINAMGWYRQAPGKERELVAAIRSGGRTYYADSVKGRFTISRDKAKNTVYLQMNSLKPEDTAVYYCNAGGKWIGSDYWGQGTQVTVSS | high polyreactivity
43 | QVQLVESGGGLVQAGGSLRLSCAASGRTFKKYTMGWYRQAPGKERELVAVITSGGSTYYADSVKGRFTISRDNAKNTVYLQMNSLKPEDTAVYYCATKASYKGDYWGQGTQVTVSS | high polyreactivity
